Assay results as given in patent publication US9097721B2, “Compositions comprising engineered phosphothreonine affinity reagents, methods of making, and methods of use” (The Board of Trustees of the University of Illinois, priority 2012, dated 2015).
Several values for one entry are separate records, joined by “and”; a condition that tells them apart may be missing. Identical values can stand only once. Entries after “also recorded” stand apart in the source; their conditions may differ.

Legend:
Assay type in all cases: binding, yeast
[1] = target: T1, cognate pT peptide (Rad9-pT) (Saccharomyces cerevisiae, UniProt P14737); assay: FTS assay, Tm shift in the presence of the cognate pT peptide
T1 construct: host or cells: chemical synthesis
Method: The FTS assay was performed on a MxPro-Mx3005P instrument (Stratagene) following the protocol described by Giuliani et al (Giuliani et al. (2008) Biochemistry 47, 13974-84). It is a real-time assay using the SYBR® Green experiment setting with dissociation curve. The default FRROX filter set was used with an excitation wavelength of 492 nm and emission wavelength of 610 nm. FHA1 domains diluted with PBS to 2× final concentration (i.e. 2 μM and 8 μM) were mixed with 10×SYPRO® Orange protein gel stain (Invitrogen; 5000× concentration in DMSO) to give a final dye concentration of 10×. Then, to the protein wells only, 10 μL of the dye+protein mixture was added along with 10 μL of 1×PBS buffer. In other wells, 10 μL of either the pT peptide or its non-phosphorylated form (diluted to 2× final concentration with PBS, i.e. 100 μM and 500 μM) was added to 10 μL of dye+protein mixture. The final reaction volume was 20 μL with final concentrations of 1 μM or 4 μM of FHA1 domains, 50 μM or 250 μM of pT and non-phosphorylated peptides and 5× final concentration of the SYPRO® Orange. The assay was performed in duplicate in 96 well white PCR plates (BIO-Rad) covered with optically clear Microseal® ‘B’ Film (Bio-Rad) and heated from 25° C. to 95° C. and the melting curve was obtained with fluorescence (R) values plotted on the Y-axis and increasing temperature (° C.) on the X-axis. The mid-point of the curve gives the melting temperature (Tm), which shifts to a higher temperature in the presence of the pT peptide.
The Tm values of FHA1 variants were determined by FTS assay (Giuliani et al. (2008) Biochemistry 47, 13974-84). A representative Tm curve for the G2 variant at 1 μM concentration is shown (solid squares), alone and in the presence of the pT peptide (FIG. 11). […] The Tm values of the thermally stable variants (along with WT and D2 variant) at 1 μM and 4 μM concentration, along with the Tm shift in the presence of two different concentrations (50 μM and 250 μM) of the pT peptide, are listed in Table S3.

[2] = target: T2, pT peptide (Rad 9-pT: SLEVpTEADATFYAKK) (Saccharomyces cerevisiae, UniProt P14737); assay: Isothermal titration calorimetry (ITC); details: in solution by ITC; FHA1 domain 35 μM in cell; listed as WT FHA1 domain
T2 construct: host or cells: chemical synthesis
Method: A fixed amount (10 μL) of the pT peptide (Rad 9-pT: SLEVpTEADATFYAKK (SEQ ID NO:9); 500 μM) was injected from the syringe into the sample cell containing the FHA1 domain (35 μM). […] Each measurement was repeated three times.
The affinity of the G2 variant and the WT FHA1 domain to the pT peptide (SLEVpTEADATFYAKK) (SEQ ID NO:9) was determined by ITC (FIG. 12). The sample cell contained the purified FHA1 domains (35 μM) and the injection syringe was filled with the pT peptide (350 μM). […] The FHA1 domains bound to the pT peptide with a stoichiometry of 1:1, and the ITC graph was fitted by the single site binding model.

Rad9-pT peptide [3] = target: T3, Rad9-pT peptide (Saccharomyces cerevisiae, UniProt P14737); assay: Phage ELISA of phage-displayed FHA1 domains; details: for binding to Rad9-pT peptide when phage-displayed: M13 protein III fusion, DsbA signal sequence; for binding to Rad9-pT peptide when phage-displayed with chaperones: co-expression of dsbA, dsbC, fkpA, skp and surA
T3 construct: host or cells: chemical synthesis
Method: To amplify the phage particles displaying the recombinant FHA1 variants, TG1 bacterial cells (5 mL; Stratagene) harboring the phagemid DNA were infected at mid-log (OD600nm=0.5-0.6) with M13K07 helper phage (New England Biolabs) at a multiplicity of infection (MOI) of 20 for 1 h at 37° C. at 150 rpm. Infected cells were centrifuged, and the pellet was resuspended in fresh Luria Bertani medium (LB: 10 g Tryptone, 5 g Yeast extract, and 10 g NaCl per liter) supplemented with 50 μg/mL carbenicillin and 50 μg/ml kanamycin, and phage were amplified overnight at 30° C. at 250 rpm. All of the phage ELISA steps were performed at room temperature. Biotinylated peptides (100 μL, 5 μg/mL) were immobilized on Nunc MaxiSorp flat-bottom 96 well plates (Thermo Fisher Scientific) via NeutrAvidin™ Biotin binding protein (100 μL, 10 μg/mL; Thermo Fisher Scientific) and blocked with 2% skim milk in 1×PBS (200 μL per well). After washing with Phosphate Buffered Saline (PBS: 0.14 M Sodium Chloride, 0.003 M Potassium Chloride, 0.002 M Potassium Phosphate, and 0.01 M Sodium Phosphate), the wells were incubated with the phage supernatant (100 μL of phage diluted 1:2 with PBS containing 0.1% Tween 20 (PBST)) for 1 h and washed three times with PBST. The binding phage were detected using anti-M13 antibody conjugated to horse radish peroxidase (HRP) (GE Healthcare) diluted 1:5000 with PBST. After washing away the unbound antibody, the chromogenic substrate for HRP; 2,2′-Azinobis (3-ethylbenzothiazoline-6-Sulfonic Acid) diammonium salt (Thermo Fisher Scientific), supplemented with hydrogen peroxide was added (100 μL per well), and the absorbance of the green colored complex was measured at 405 nm on POLARstar OPTIMA microtiter plate reader (BMG Labtech).

Rad9-pT peptide [4] = target: T3, Rad9-pT peptide; assay: ELISA of GST fusions of FHA1 domains; details: expressed in bacterial cytoplasm as GST fusion; listed as WT FHA1 domain
Method: For production of FHA1-GST fusion protein, BL21 DE3 cells (10 mL; Stratagene) harboring the expression vector was grown overnight at 30° C. using the Overnight Express™ Autoinduction System 1 (Novagen). The next day, cells were lysed using BugBuster® 10× Protein Extraction Reagent (Novagen) following the manufacturer's instructions. Cell lysate (100 μL diluted 1:5 with PBST) was incubated with the biotinylated peptides as described above and detected using anti-GST antibody conjugated to HRP (diluted 1:10,000 with PBST; GE Healthcare).

Kd [2]: ~1000 nM and 1000 nM
binding to Rad9-pT peptide when phage-displayed (Rad9-pT peptide [3]): non-functional
binding to Rad9-pT peptide when phage-displayed (Rad9-pT peptide [3]; listed as WT FHA1 domain): did not bind
binding to Rad9-pT peptide when phage-displayed (Rad9-pT peptide [3]; listed as wild-type (WT) FHA1 domain): no binding was detected
binding to Rad9-pT peptide when phage-displayed via TorA signal sequence (Rad9-pT peptide [3]; listed as WT FHA1 domain): only partially restored
binding to Rad9-pT peptide when phage-displayed with chaperones (Rad9-pT peptide [3]): remained nonfunctional
binding to Rad9-pT peptide when phage-displayed with chaperones (Rad9-pT peptide [3]; listed as WT FHA1 domain): did not restore the activity
B1: WT: N-terminal FHA1 domain of S. cerevisiae Rad53 protein kinase, residues 1-170 (SEQ ID NO:7) (protein, listed as Saccharomyces cerevisiae)
chain: MENITQPTQQSTQATQRFLIEKFSQEQIGENIVCRVICTTGQIPIRDLSADISQVLKEKRSIKKVWTFGRNPACDYHLGNISRLSNKHFQILLGEDGNLLLNDISTNGTWLNGQKVEKNSNQLLSQGDEITVGVGVESDILSLVIFINDKFKQCLEQNKVDRIRSNLKNT
Tm shift (° C.) in the presence of pT peptide ([1]; 50 μM pT peptide, protein 1 μM): 1.7 °C
Tm shift (° C.) in the presence of pT peptide ([1]; 50 μM pT peptide, protein 4 μM): 1.95 °C
Tm shift (° C.) in the presence of pT peptide ([1]; 250 μM pT peptide, protein 1 μM): 3.8 °C
Tm shift (° C.) in the presence of pT peptide ([1]; 250 μM pT peptide, protein 4 μM): 3.55 °C
binding to Rad9-pT peptide when phage-displayed via TorA signal sequence (Rad9-pT peptide [3]): only detected when the phage particles were concentrated 50 times
binding of GST fusion to Rad9-pT peptide (Rad9-pT peptide [4]): bound specifically; also recorded: showed specific binding
